Test results reported in patent US6645728.

T1: kinase-deficient IKKα (K44M), Q60680
T1 chain: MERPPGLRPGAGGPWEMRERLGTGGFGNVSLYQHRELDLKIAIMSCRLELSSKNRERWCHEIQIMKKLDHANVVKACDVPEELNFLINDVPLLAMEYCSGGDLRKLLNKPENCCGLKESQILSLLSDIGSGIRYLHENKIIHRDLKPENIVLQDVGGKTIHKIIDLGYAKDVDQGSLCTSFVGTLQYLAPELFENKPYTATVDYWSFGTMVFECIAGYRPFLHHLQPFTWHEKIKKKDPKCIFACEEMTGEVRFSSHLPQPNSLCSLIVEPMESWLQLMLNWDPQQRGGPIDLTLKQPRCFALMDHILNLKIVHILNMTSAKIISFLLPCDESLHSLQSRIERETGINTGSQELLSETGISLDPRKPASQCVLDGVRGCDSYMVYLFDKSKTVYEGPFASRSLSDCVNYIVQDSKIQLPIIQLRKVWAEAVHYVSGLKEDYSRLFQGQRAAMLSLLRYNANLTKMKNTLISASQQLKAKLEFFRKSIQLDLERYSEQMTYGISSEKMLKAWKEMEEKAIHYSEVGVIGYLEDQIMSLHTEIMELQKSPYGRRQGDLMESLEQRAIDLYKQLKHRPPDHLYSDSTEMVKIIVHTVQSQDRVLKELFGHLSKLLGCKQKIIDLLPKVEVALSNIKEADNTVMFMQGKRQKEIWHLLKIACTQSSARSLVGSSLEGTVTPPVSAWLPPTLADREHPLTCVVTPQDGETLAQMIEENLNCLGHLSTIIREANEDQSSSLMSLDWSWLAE

T2: IKKα (as present in transfected 293 cells)
T2 sequence (O15111 1-745, species assumed, looked up): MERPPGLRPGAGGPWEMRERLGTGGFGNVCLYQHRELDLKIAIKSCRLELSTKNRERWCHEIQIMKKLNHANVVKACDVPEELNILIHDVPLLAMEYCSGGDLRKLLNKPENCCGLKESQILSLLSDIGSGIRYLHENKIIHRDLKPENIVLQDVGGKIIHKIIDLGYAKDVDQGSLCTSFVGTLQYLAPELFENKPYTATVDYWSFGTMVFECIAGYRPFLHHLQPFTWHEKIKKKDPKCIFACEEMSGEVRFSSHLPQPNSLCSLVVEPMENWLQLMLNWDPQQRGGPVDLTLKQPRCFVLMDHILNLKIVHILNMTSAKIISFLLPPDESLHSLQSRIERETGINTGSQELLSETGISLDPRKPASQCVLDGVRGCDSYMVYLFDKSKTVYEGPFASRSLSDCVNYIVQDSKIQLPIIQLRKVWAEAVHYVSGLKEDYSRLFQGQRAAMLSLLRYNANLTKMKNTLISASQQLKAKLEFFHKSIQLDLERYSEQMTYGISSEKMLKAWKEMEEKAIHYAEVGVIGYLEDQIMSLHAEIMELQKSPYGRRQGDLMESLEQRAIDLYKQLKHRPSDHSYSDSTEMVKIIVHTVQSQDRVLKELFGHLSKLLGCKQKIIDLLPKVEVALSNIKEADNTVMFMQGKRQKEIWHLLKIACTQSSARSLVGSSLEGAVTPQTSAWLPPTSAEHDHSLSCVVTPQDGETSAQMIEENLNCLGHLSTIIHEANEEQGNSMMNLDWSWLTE


Tests used:
[1] = biological target: T1, kinase-deficient IKKα (K44M), Q60680
[2] = biological target: T2, IKKα (as present in transfected 293 …)

| Protein | phosphorylation of coimmunoprecipitated IKKα (K44M) in immunocomplex kinase reaction [1] | IKKα activity (in vitro kinase reaction on GST-IκBα (1-62)) [2] |
| --- | --- | --- |
| Myc-NIK (protein) MAVMEMACPGAPGSAVGQQKELPKPKEKTPPLGKKQSSVYKLEAVEKSPVFCGKWEILNDVITKGTAKEGSEAGPAAISIIAQAECENSQEFSPTFSERIFIAGSKQYSQSESLDQIPNNVAHATEGKMARVCWKGKRRSKARKKRKKKSSKSLAHAGVALAKPLPRTPEQESCTIPVQEDESPLGAPYVRNTPQFTKPLKEPGLGQLCFKQLGEGLRPALPRSELHKLISPLQCLNHVWKLHHPQDGGPLPLPTHPFPYSRLPHPFPFHPLQPWKPHPLESFLGKLACVDSQKPLPDPHLSKLACVDSPKPLPGPHLEPSCLSRGAHEKFSVEEYLVHALQGSVSSSQAHSLTSLAKTWAARGSRSREPSPKTEDNEGVLLTEKLKPVDYEYREEVHWATHQLRLGRGSFGEVHRMEDKQTGFQCAVKKVRLEVFRAEELMACAGLTSPRIVPLYGAVREGPWVNIFMELLEGGSLGQLVKEQGCLPEDRALYYLGQALEGLEYLHSRRILHGDVKADNVLLSSDGSHAALCDFGHAVCLQPDGLGKSLLTGDYIPGTETHMAPEVVLGRSCDAKVDVWSSCCMMLHMLNGCHPWTQFFRGPLCLKIASEPPPVREIPPSCAPLTAQAIQEGLRKEPIHRVSAAELGGKVNRALQQVGGLKSPWRGEYKEPRHPPPNQANYHQTLHAQPRELSPRAPGPRPAEETTGRAPKLQPPLPPEPPEPNKSPPLTLSKEESGMWEPLPLSSLEPAPARNPSSPERKATVPEQELQQLEIELFLNSLSQPFSLEEQEQILSCLSIDSLSLSDDSEKNPSKASQSSRDTLSSGVHSWSSQAEARSSSWNMVLARGRPTDTPSYFNGVKVQIQSLNGEHLHIREFHRVKVGDIATGISSQIPAAAFSLVTKDGQPVRYDMEVPDSGIDLQCTLAPDGSFAWSWRVKHGQLENRP | wild-type NIK and mutant NIK-S549A and NIK-T552A effectively phosphorylated the coimmunoprecipitated IKKα (K44M) protein in vitro |  |
| NIK-T559A (protein) MAVMEMACPGAPGSAVGQQKELPKPKEKTPPLGKKQSSVYKLEAVEKSPVFCGKWEILNDVITKGTAKEGSEAGPAAISIIAQAECENSQEFSPTFSERIFIAGSKQYSQSESLDQIPNNVAHATEGKMARVCWKGKRRSKARKKRKKKSSKSLAHAGVALAKPLPRTPEQESCTIPVQEDESPLGAPYVRNTPQFTKPLKEPGLGQLCFKQLGEGLRPALPRSELHKLISPLQCLNHVWKLHHPQDGGPLPLPTHPFPYSRLPHPFPFHPLQPWKPHPLESFLGKLACVDSQKPLPDPHLSKLACVDSPKPLPGPHLEPSCLSRGAHEKFSVEEYLVHALQGSVSSSQAHSLTSLAKTWAARGSRSREPSPKTEDNEGVLLTEKLKPVDYEYREEVHWATHQLRLGRGSFGEVHRMEDKQTGFQCAVKKVRLEVFRAEELMACAGLTSPRIVPLYGAVREGPWVNIFMELLEGGSLGQLVKEQGCLPEDRALYYLGQALEGLEYLHSRRILHGDVKADNVLLSSDGSHAALCDFGHAVCLQPDGLGKSLLTGDYIPGAETHMAPEVVLGRSCDAKVDVWSSCCMMLHMLNGCHPWTQFFRGPLCLKIASEPPPVREIPPSCAPLTAQAIQEGLRKEPIHRVSAAELGGKVNRALQQVGGLKSPWRGEYKEPRHPPPNQANYHQTLHAQPRELSPRAPGPRPAEETTGRAPKLQPPLPPEPPEPNKSPPLTLSKEESGMWEPLPLSSLEPAPARNPSSPERKATVPEQELQQLEIELFLNSLSQPFSLEEQEQILSCLSIDSLSLSDDSEKNPSKASQSSRDTLSSGVHSWSSQAEARSSSWNMVLARGRPTDTPSYFNGVKVQIQSLNGEHLHIREFHRVKVGDIATGISSQIPAAAFSLVTKDGQPVRYDMEVPDSGIDLQCTLAPDGSFAWSWRVKHGQLENRP | failed to phosphorylate the coprecipitating IKKα | the mutant NIK-T559A failed to induce IKKα activity |
| NIK-T552A (protein) MAVMEMACPGAPGSAVGQQKELPKPKEKTPPLGKKQSSVYKLEAVEKSPVFCGKWEILNDVITKGTAKEGSEAGPAAISIIAQAECENSQEFSPTFSERIFIAGSKQYSQSESLDQIPNNVAHATEGKMARVCWKGKRRSKARKKRKKKSSKSLAHAGVALAKPLPRTPEQESCTIPVQEDESPLGAPYVRNTPQFTKPLKEPGLGQLCFKQLGEGLRPALPRSELHKLISPLQCLNHVWKLHHPQDGGPLPLPTHPFPYSRLPHPFPFHPLQPWKPHPLESFLGKLACVDSQKPLPDPHLSKLACVDSPKPLPGPHLEPSCLSRGAHEKFSVEEYLVHALQGSVSSSQAHSLTSLAKTWAARGSRSREPSPKTEDNEGVLLTEKLKPVDYEYREEVHWATHQLRLGRGSFGEVHRMEDKQTGFQCAVKKVRLEVFRAEELMACAGLTSPRIVPLYGAVREGPWVNIFMELLEGGSLGQLVKEQGCLPEDRALYYLGQALEGLEYLHSRRILHGDVKADNVLLSSDGSHAALCDFGHAVCLQPDGLGKSLLAGDYIPGTETHMAPEVVLGRSCDAKVDVWSSCCMMLHMLNGCHPWTQFFRGPLCLKIASEPPPVREIPPSCAPLTAQAIQEGLRKEPIHRVSAAELGGKVNRALQQVGGLKSPWRGEYKEPRHPPPNQANYHQTLHAQPRELSPRAPGPRPAEETTGRAPKLQPPLPPEPPEPNKSPPLTLSKEESGMWEPLPLSSLEPAPARNPSSPERKATVPEQELQQLEIELFLNSLSQPFSLEEQEQILSCLSIDSLSLSDDSEKNPSKASQSSRDTLSSGVHSWSSQAEARSSSWNMVLARGRPTDTPSYFNGVKVQIQSLNGEHLHIREFHRVKVGDIATGISSQIPAAAFSLVTKDGQPVRYDMEVPDSGIDLQCTLAPDGSFAWSWRVKHGQLENRP | wild-type NIK and mutant NIK-S549A and NIK-T552A effectively phosphorylated the coimmunoprecipitated IKKα (K44M) protein in vitro |  |
| NIK-S549A (protein) MAVMEMACPGAPGSAVGQQKELPKPKEKTPPLGKKQSSVYKLEAVEKSPVFCGKWEILNDVITKGTAKEGSEAGPAAISIIAQAECENSQEFSPTFSERIFIAGSKQYSQSESLDQIPNNVAHATEGKMARVCWKGKRRSKARKKRKKKSSKSLAHAGVALAKPLPRTPEQESCTIPVQEDESPLGAPYVRNTPQFTKPLKEPGLGQLCFKQLGEGLRPALPRSELHKLISPLQCLNHVWKLHHPQDGGPLPLPTHPFPYSRLPHPFPFHPLQPWKPHPLESFLGKLACVDSQKPLPDPHLSKLACVDSPKPLPGPHLEPSCLSRGAHEKFSVEEYLVHALQGSVSSSQAHSLTSLAKTWAARGSRSREPSPKTEDNEGVLLTEKLKPVDYEYREEVHWATHQLRLGRGSFGEVHRMEDKQTGFQCAVKKVRLEVFRAEELMACAGLTSPRIVPLYGAVREGPWVNIFMELLEGGSLGQLVKEQGCLPEDRALYYLGQALEGLEYLHSRRILHGDVKADNVLLSSDGSHAALCDFGHAVCLQPDGLGKALLTGDYIPGTETHMAPEVVLGRSCDAKVDVWSSCCMMLHMLNGCHPWTQFFRGPLCLKIASEPPPVREIPPSCAPLTAQAIQEGLRKEPIHRVSAAELGGKVNRALQQVGGLKSPWRGEYKEPRHPPPNQANYHQTLHAQPRELSPRAPGPRPAEETTGRAPKLQPPLPPEPPEPNKSPPLTLSKEESGMWEPLPLSSLEPAPARNPSSPERKATVPEQELQQLEIELFLNSLSQPFSLEEQEQILSCLSIDSLSLSDDSEKNPSKASQSSRDTLSSGVHSWSSQAEARSSSWNMVLARGRPTDTPSYFNGVKVQIQSLNGEHLHIREFHRVKVGDIATGISSQIPAAAFSLVTKDGQPVRYDMEVPDSGIDLQCTLAPDGSFAWSWRVKHGQLENRP | wild-type NIK and mutant NIK-S549A and NIK-T552A effectively phosphorylated the coimmunoprecipitated IKKα (K44M) protein in vitro |  |
